Bridge positions count the residues as written; N and C are the ends. Ends that are not written are not given here. I, II: the chains in the order shown.
B1: Di-GLP-G8C: Homodimer of GLP-G8C (SEQ ID NO: 4), formed by oxidation at the C-terminal Cys (peptide)
chain 1: HGEGTFTSDVSSYLEGQAAKEFIAWLVKGGGGGSC
chain 2: B1 chain 1
modifications: disulfide I:35-II:35
B2: Ex4C-Ex4C: Homodimer of Ex4C(NH2) (SEQ ID NO: 3), joined by a disulfide bond between the C-terminal Cys residues (peptide)
chain 1: HGEGTFTSDLSKQMEEEAVRLFIEWLKNGGSGGSC
chain 2: B2 chain 1
modifications: disulfide homodimer, C-terminal amide; Ex4C peptide sequence

Tested on: Balb/c mice
Assay: Blood sugar regulation in mice in vivo after intraperitoneal drug and glucose injection
Conditions: 3 hours after administration; 100 μl of 10 nmol/L drug i.p. with 200 μl of 40% glucose; FIG. 5
Description: After fasting overnight, mice were intraperitoneally injected respectively with 100 μl of different drugs that were dissolved to 10 nmol/L in a 10 mmol/L sodium phosphate buffer (pH6.5), and meanwhile injected with 200 μl of glucose solution (40%). Blood was sampled at 30, 60, 120, and 180 min after drug administration and blood sugar was assayed (Blood sugar meter, LifeScan, Inc.). Then, 200 μl of glucose solution (40%) was intraperitoneally injected again at 24 hours, 48 hours, 72 hours and 96 hours after drug administration, respectively. Blood was sampled at 30 and 60 min after glucose administration and blood sugar was assayed (Blood sugar meter, LifeScan, Inc.).

Molecule | blood sugar level
B1 | well-regulated
B2 | well-regulated
